Experimental data as given in the RNAGym collection of RNA variant scans (doi:10.1073/pnas.2313332121).
Fewer inactive variants are shown than the library holds.

B1: TPR 5TU (parent)
chain: GGAUCUUCUCGAUCUAACAAAAAAGACAAAUCUGCCACAAAGCUUGAGAGCAUCUUCGGAUGCAGAGGCGGCAGCCUUCGGUGGCGCGAUAGCGCCAACGUUCUCAACUAUGACACGCAAAACGCGUGCUCCGUUGAAUGGAGUUUAUCAUG

Variants of: B1
Assay: polymerase ribozyme fitness, log enrichment relative to wild type (log ratio); higher = more active; in vitro selection for triplet polymerase activity
Procedure, shortened: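 Input and output libraries were sequenced on Illumina after a single in vitro selection round, run in triplicate on PCR-built, transcribed mutant libraries of each subunit of a heterodimeric triplet polymerase ribozyme. Selection annealed libraries to a biotinylated primer, the partner subunit and triplets, incubated them frozen at −7 °C, then gel-excised extended constructs for streptavidin-bead capture and RT-PCR. Genotypes with ≥10 input reads and ≥1 read per output were kept. Fitness is the logarithm, taken in base 2, of genotype enrichment divided by wild-type enrichment, using inverse-variance-weighted replicate averages.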

| Variant | polymerase ribozyme fitness (log ratio) |
| --- | --- |
| A12U A19C U44G U148C | ≤ -4.2 |
| A12C A40G A41U A52C C54U A66G C95U | ≤ -4.2 |
| A12G A52U C76U C93U A120U | -2.12 |
| A12U C14A A24U U56A C85U C99U G141A | ≤ -4.2 |
| A12G A23C A47C A60G C93U | ≤ -4.2 |
| A12G C87G G88U C96U C105A C108G C116U | ≤ -4.2 |
| G11U C96G | -1.31 |
| A12G G88A U109C A142C | -4.12 |
| A12G C14G A97U | -2.49 |
| A12G A30G | -2.97 |
| A12C C125U | -0.492 |
| A12G A17G A19G U53A U55A G81U G84U G117U | -4.04 |
| A12C G58C C96G | -1.07 |
| A12U A17G C35A U44A A47C A52U C95U G152U | ≤ -4.2 |
| A12G C54G C116U | -0.574 |
| G11U A52U | -2.33 |
| G11U C76A G83U C85A A137G | ≤ -4.2 |
| A12C C14U U55A A98G C103G G133A | ≤ -4.2 |
| A12C A16U C87G | ≤ -4.2 |
| A12C A20U U53C A89G | -3.96 |
| G11U C93U A115G | -2.88 |

| Variant | polymerase ribozyme fitness (log ratio) |
| --- | --- |
| A12C U15G U56A C75U G86U C129A G133U | ≤ -4.2 |
| G11U C14G G34U G84U C125G C149G | ≤ -4.2 |
| G11U A41U C93U C99A U104G C118U G140U G152U | -4.02 |
| A12U A19U C35A U61G C69U U78G G80C A97C G126U | ≤ -4.2 |
| A12G C14G C18U U31A U56G U101A | -2.32 |
| A12G C93A | -2.26 |
| A12G C93U | -1.21 |
| A12U A39U A150C | ≤ -4.2 |
| A12U A28U U44G C93A U102A | ≤ -4.2 |
| A12C A30U A37U A49U C57U U90G A91U A107U | ≤ -4.2 |
| A12U A37G C69G A122C G126A A150G | ≤ -4.2 |
| A12U C14U A21U A49G C75G C116U A121C U146G U151G | ≤ -4.2 |
| A12G C79U G86C A120G C125U | ≤ -4.2 |
| A12C C85U A142U | -1.48 |
| A12G A22G A39U A47U G92U A97G U101G | ≤ -4.2 |
| A12G A19U U45A U53A G88U | ≤ -4.2 |
| G11U A52G A60G G83U | -3.33 |
| A12C C93U | -2.17 |
| A12U A52C G84A A98G | -2.65 |
| A12G U77C | -3.98 |
| A12G A47C G58C C69A C93A U144C | -3.84 |

| Variant | polymerase ribozyme fitness (log ratio) |
| --- | --- |
| A12G G25C A122G G136A | -3.16 |
| A12C A37C C72A U90G U101A C103U A138G A142U | ≤ -4.2 |
| G11U A91G | -3.82 |
| G11U A47G U53A | -2.54 |
| A12C A98G | -0.18 |
| A12C A16G A41C A121U | -1.69 |
| G11U C32U G84A C85A C105U C132U U139G U151G | -4.14 |
| A12U A40U C85U U145C | -1.21 |
| A12U A20C G86U G100U U151A | ≤ -4.2 |
| A12C G94U A150G | -2.61 |
| A12C C93G A98U | -3.05 |
| A12G C35U U56C C57G G58U A60G | -0.194 |
| G11U G46A C85U | -2.44 |
| A12C U15C A40U C99G | -0.411 |
| A12C A29U A66G U101G C131G | ≤ -4.2 |
| A12G G80A C118U A119C A120G G143U | -3.12 |
| A12C A20C U53A C76A U151G | ≤ -4.2 |
| A12G C99G | -0.551 |
| A12C C87U C114U U139G | -3.08 |
| A12C A20G G25A A30G U44A A89G U145G | ≤ -4.2 |
| G11U A40U G42C G84C G100U A107U U134G | ≤ -4.2 |

| Variant | polymerase ribozyme fitness (log ratio) |
| --- | --- |
| A12G C35A C95U A106U | ≤ -4.2 |
| G11U U13A A17U A26U A41C U45A C87A C108U A142C A147U | ≤ -4.2 |
| A12U A16C A28G C38U A41U G86A A150G | ≤ -4.2 |
| A12C G50C A66C C79G C93U C95U U139C A147U | ≤ -4.2 |
| A12G G84A G143A A147G | -3.25 |
| A12C A16G U55A | -2.45 |
| A12U A26C C36U | -3.95 |
| A12G A16U A26U G83U C87G U145C | ≤ -4.2 |
| A12G A60G C93U | -0.294 |
| A12G A16G U44G G81C G84A C95U U144A U146C | ≤ -4.2 |
| A12U C14A C85G U145C | -3.7 |
| G11U C38A G83U U135C C149G | ≤ -4.2 |
| A12G A20U A23C G141U | ≤ -4.2 |
| A12C A30G | -3.77 |
| A12U A28U U102A U139G U148G | -4.1 |
| A12C U139A | ≤ -4.2 |
| A12U A23C C54G U55G C79A G83U G92A G124C U145A | ≤ -4.2 |
| A12C C27A C36U C72G C118A | ≤ -4.2 |
| A12C C57A G83U G136C | -3.78 |
| A12C A64G C85A G100C | ≤ -4.2 |
